Data from patent publication US20030158083A1, “Method of effecting angiogenesis by modulating the function of a novel endothelia phosphatase” (The Procter & Gamble Company, priority 2002, published 2003).

Legend:
Tie 2 = test: GST pull-down association assay, Tie 2; assay type: binding, human; conditions: wild-type and kinase-inactive mutant
Excerpt: (§1) Recombinant VEGFR-1 kinase (wild-type and K862R mutant), VEGFR2 kinase (wild-type and K870R mutant), Tie1 kinase (wild-type and K871R mutant), and Tie2 kinase (wild-type and K856R mutant) were expressed as glutathione S-transferase (GST) fusion proteins in Sf9 cells using a baculovirus expression system. Briefly, the intracellular domain of each receptor tyrosine kinase was generated as an in-frame GST fusion using the pAcGHLT baculovirus transfer vector (Pharmingen, San Diego, Calif.). Each baculovirus transfer vector construct was cotransfected with BaculoGold (Pharmingen, San Diego, Calif.) linearized AcNPV baculovirus DNA into Sf9 cells for the generation of recombinant baculoviruses. Five days post-transfection, recombinant baculoviruses were harvested and amplified by re-infection of Sf9 cells. Each amplified baculovirus was then used to infect Sf9 cells for the expression of the recombinant kinases. […]
(§2) The immobilized, autophosphorylated kinases were then incubated with HEK 293 cell lysates which overexpressed either the KAPh SH2 domain or KAPh full-length protein. […] KAPh protein that associated with the recombinant kinases was analyzed by Western blot using a chemiluminescence detection system (Amersham Pharmacia, Piscataway, N.J.).

[1] = target: T1, human VEGF receptor-2 (KDR) (Homo sapiens, UniProt P35968); test: GST pull-down association assay, VEGFR2; assay type: binding; conditions: HEK 293 lysate expressing His-tagged protein; Western blot
T1 construct: the intracellular domain of each receptor tyrosine kinase was generated as an in-frame GST fusion; made in house; host or cells: Sf9 insect cells (baculovirus)

[2] = target: T2, human VEGF receptor-2 (KDR) (Homo sapiens, UniProt P35968, Y951F); test: GST pull-down association assay, VEGFR2; assay type: binding; conditions: GST fusion Y951F versus wild-type
T2 construct: the intracellular domain of each receptor tyrosine kinase was generated as an in-frame GST fusion; made in house; host or cells: Sf9 insect cells (baculovirus)

[3] = target: T3, human VEGF receptor-2 (KDR) (Homo sapiens, UniProt P35968, Y1175F); test: GST pull-down association assay, VEGFR2; assay type: binding; conditions: GST fusion Y1175F versus wild-type
T3 construct: the intracellular domain of each receptor tyrosine kinase was generated as an in-frame GST fusion; made in house; host or cells: Sf9 insect cells (baculovirus)

Tie 1 = test: GST pull-down association assay, Tie 1; assay type: binding, human; conditions: wild-type and kinase-inactive mutant
Excerpt: as §1, §2

human VEGF receptor-1 = target: T4, human VEGF receptor-1 (Homo sapiens, UniProt P17948); test: GST pull-down association assay, VEGFR-1; assay type: binding; conditions: HEK 293 lysate expressing His-tagged full-length KAPh
T4 construct: the intracellular domain of each receptor tyrosine kinase was generated as an in-frame GST fusion; made in house; host or cells: Sf9 insect cells (baculovirus)
T4 sequence (P17948 781-1338 limits assumed): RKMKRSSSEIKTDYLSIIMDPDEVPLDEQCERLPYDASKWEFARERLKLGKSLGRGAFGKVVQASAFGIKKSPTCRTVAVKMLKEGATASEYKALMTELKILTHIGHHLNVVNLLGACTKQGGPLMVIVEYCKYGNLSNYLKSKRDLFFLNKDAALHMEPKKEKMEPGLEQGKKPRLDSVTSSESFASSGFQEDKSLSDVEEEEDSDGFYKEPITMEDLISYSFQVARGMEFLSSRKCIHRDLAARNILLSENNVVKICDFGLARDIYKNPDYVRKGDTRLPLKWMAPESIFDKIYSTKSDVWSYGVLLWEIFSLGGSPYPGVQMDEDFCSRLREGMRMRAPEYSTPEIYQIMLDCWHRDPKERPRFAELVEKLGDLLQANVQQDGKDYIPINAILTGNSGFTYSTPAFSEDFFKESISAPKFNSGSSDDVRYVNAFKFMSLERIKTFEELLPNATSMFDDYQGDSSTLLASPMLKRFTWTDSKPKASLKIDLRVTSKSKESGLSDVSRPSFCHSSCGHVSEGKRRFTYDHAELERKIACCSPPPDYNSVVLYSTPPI
Excerpt: as §1, §2

[4] = Phosphatase activity with fluorogenic substrate DiFMUP; assay type: biochemical
Protocol: Purified, recombinant KAPh phosphatase domain (amino acids 83-464 SEQ ID NO 4) (100 μg/mL) and full-length PTEN (amino acids 1-403) (100 μg/mL) were each mixed with a fluorogenic phosphatase substrate 6,8-difluoro-4-methylumbelliferyl phosphate (DiFMUP) (Molecular Probes, Eugene, Oreg.) at a final concentration of a 100 μM in assay buffer (10 mM sodium acetate, pH 6.0, 150 mM NaCl, 5 mM DTT). Following incubation at ambient temperature for 15 or 60 min., the fluorescence intensity of the 6,8-difluoro-4-methylumbelliferone (DiFMU) product was measured in triplicate and used as an assessment of phosphatase activity. A Victor 5 microplate reader from Wallac (Turku, Finland) was used to read the fluorescence intensity from 384-well microplates (Corning Inc., Corning, N.Y.).

T3 sequence (P35968 790-1356 Y1175F): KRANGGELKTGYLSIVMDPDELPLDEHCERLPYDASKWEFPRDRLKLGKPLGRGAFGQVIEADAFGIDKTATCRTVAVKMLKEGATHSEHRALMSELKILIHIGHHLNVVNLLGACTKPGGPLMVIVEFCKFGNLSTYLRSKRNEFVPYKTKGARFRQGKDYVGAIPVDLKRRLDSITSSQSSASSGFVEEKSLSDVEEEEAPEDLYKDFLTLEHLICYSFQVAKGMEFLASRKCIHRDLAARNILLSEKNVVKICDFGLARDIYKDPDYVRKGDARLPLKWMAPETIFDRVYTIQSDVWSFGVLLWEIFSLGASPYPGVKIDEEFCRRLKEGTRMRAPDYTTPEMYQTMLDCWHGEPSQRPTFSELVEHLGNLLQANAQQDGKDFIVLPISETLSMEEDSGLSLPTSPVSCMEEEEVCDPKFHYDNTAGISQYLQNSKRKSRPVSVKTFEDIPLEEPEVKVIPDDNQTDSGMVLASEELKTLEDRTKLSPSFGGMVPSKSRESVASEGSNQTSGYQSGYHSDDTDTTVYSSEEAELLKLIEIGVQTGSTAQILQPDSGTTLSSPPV
T1 sequence (P35968 790-1356): as the sequence (P35968 790-1356 Y1175F) above, with F386Y counted along it
T2 sequence (P35968 790-1356 Y951F): as the sequence (P35968 790-1356 Y1175F) above, with Y162F, F386Y counted along it

B1: KAPh: novel human KDR Associated Phosphatase protein, full-length sequence SEQ ID NOS 1 and 2 (protein, listed as Homo sapiens)
chain: MKPRKAEPHSFREKVFRKKPPVCAVCKVTIDGTGVSCRVCKVATHRKCEAKVTSACQALPPVELRRNTAPVRRIEHLGSTKSLNHSKQRSTLPRSFSLDPLMERRWDLDLTYVTERILAAAFPARPDEQRHRGHLRELAHVLQSKHRDKYLLFNLSEKRHDLTRLNPKVQDFGWPELHAPPLDKLCSICKAMETWLSADPQHVVVLYCKGNKGKLGVIVSAYMHYSKISAGADQALATLTMRKFCEDKVATELQPSQRRYISYFSGLLSGSIRMNSSPLFLHYVLIPMLPAFEPGTGFQPFLKIYQSMQLVYTSGVYHIAGPGPQQLCISLEPALLLKGDVMVTCYHKGGRGTDRTLVFRVQFHTCTIHGPQLTFPKDQLDEAWTDERFPFQASVEFVFSSSPEKIKGSTPRNDPSVSVDYNTTEPAVRWDSYENFNQHHEDSVDGSLTHTRGPLDGSPYAQVQRPPRQTPPAPSPEPPPPPMLSVSSDSGHSSTLTTEPAAESPGRPPPTAAERQELDRLLGGCGVASGGRGAGRETAILDDEEQPTVGGGPHLGVYPGHRPGLSRHCSCRQGYREPCGVPNGGYYRPEGTLERRRLAYGGYEGSPQGYAEASMEKRRLCRSLSEGLYPYPPEMGKPATGDFGYRAPGYREVVILEDPGLPALYPCPACEEKLALPTAALYGLRLEREAGEGWASEAGKPLLHPVRPGHPLPLLLPACGHHHAPMPDYSCLKPPKAGEEGHEGCSYTMCPEGRYGHPGYPALVTYSYGGAVPSYCPAYGRVPHSCGSPGEGRGYPSPGAHSPRAGSISPGSPPYPQSRKLSYEIPTEEGGDRYPLPGHLASAGPLASAESLEPVSWREGPSGHSTLPRSPRDAPCSASSELSGPSTPLHTSSPVQGKESTRRQDTRSPTSAPTQRLSPGEALPPVSQAGTGKAPELPSGSGPEPLAPSPVSPTFPPSSPSDWPQERSPGGHSDGASPRSPVPTTLPGLRHAPWQGPRGPPDSPDGSPLTPVPSQMPWLVASPEPPQSSPTPAFPLAASYDTNGLSQPPLPEKRHLPGPGQQPGPWGPEQASSPARGISHHVTFAPLLSDNVPQTPEPPTQESQSNVKFVQDTSKFWYKPHLSRDQAIALLKDKDPGAFLIRDSHSFQGAYGLALKVATPPPSAQPWKGDPVEQLVRHFLIETGPKGVKIKGCPSEPYFGSLSALVSQHSISPISLPCCLRILSKDPLEETPEAPVPTNMSTAADLLRQGAACSVLYLTSVETESLTGPQAVARASSAALSCSPRPTPAVVHFKVSAQGITLTDNQRKLFFRRHYPVNSITFSSTDPQDRRWTNPDGTTSKIFGFVAKKPGSPWENVCHLFAELDPDQPAGAIVTFITKVLLGQRK
Tie 2
  interaction with GST Tie 2: no interaction
[1]
  interaction with GST VEGFR2, wild-type versus catalytically inactive K870R: interacted in an autophosphorylation-dependent manner
[2]
  association with VEGFR2 Y951F mutant: no significant change in association
[3]
  interaction with VEGFR2 Y1175F mutant: nearly abolished
Tie 1
  interaction with GST Tie 1: no interaction
Human VEGF receptor-1
  interaction with GST VEGFR-1, wild-type versus K862R: weak, but reproducible, autophosphorylation-dependent interaction
[4]; 100 μg/mL protein, 100 μM DiFMUP, pH 6.0, ambient temperature, 60 min incubation
  fluorescent product (DiFMU) generated, fold over buffer control: ~10 fold
[4]; KAPh versus PTEN
  phosphatase activity against DiFMUP relative to PTEN: 1- to 2 fold
